{"source": "paper PMC10767740", "key": {"[1]": {"tested_on": "TDP-43 monomer (TDP-M)", "sequence (chain, as listed by the source)": "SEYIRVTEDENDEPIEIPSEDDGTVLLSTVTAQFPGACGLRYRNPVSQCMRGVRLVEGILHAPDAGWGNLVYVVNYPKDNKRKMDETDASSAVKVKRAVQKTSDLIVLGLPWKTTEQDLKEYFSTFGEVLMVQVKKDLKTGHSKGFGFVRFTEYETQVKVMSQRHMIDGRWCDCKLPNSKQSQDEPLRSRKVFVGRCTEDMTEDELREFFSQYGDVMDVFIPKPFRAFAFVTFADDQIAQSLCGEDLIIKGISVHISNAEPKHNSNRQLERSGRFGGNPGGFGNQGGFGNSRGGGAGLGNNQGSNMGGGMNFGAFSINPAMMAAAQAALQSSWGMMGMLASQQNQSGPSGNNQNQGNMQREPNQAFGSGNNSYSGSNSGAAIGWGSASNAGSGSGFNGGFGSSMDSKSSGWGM", "assay": "SPR", "settings": "protein immobilized on CM5; SPR Biacore 8K, CM5 chip, protein amine-coupled (30 ug/mL in NaAc pH 4.0); TG12 7.8-8000 nM in 1x PBS + 0.02% Tween-20; 120 s association and dissociation; 1:1 …"}, "[2]": {"tested_on": "TDP-43 native oligomer (NA-O)", "assay": "SPR", "settings": "protein immobilized on CM5, SPR Biacore 8K, CM5 chip, protein amine-coupled (30 ug/mL in NaAc pH 4.0), TG12 7.8-8000 nM in 1x PBS + 0.02% Tween-20, 120 s association and dissociation, 1:1 …"}}}
{"substance": "TG12", "values": [{"measurement": "Kd", "setting": "[1]", "value": 0.155, "unit": "µM"}, {"measurement": "Kd", "setting": "[2]", "value": 0.125, "unit": "µM"}]}
